Assay [1] addresses T1, E. coli-expressed recombinant human IL-13 (human, UniProt P35225 35-146).
T1 construct: Untagged E. coli-expressed human IL-13; also called hIL-13; human IL13 (CA)
Briefly: human IL-13 binding sandwich ELISA. A general note: An ELISA detects its analyte on a solid surface through an enzyme-linked reagent.

Assay [2] addresses T2, alanine scanning peptide 67 (human, N-terminal biotin).
T2 construct: the entry already carries the change; also called R107A peptide
T2 peptide: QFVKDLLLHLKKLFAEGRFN
Briefly: alanine scanning peptide ELISA, n=2. From the text: (§1) An ELISA method was used to detect binding of immobilised biotinylated peptide to the parental mAb 6A1 and L1+A1.
(§2) This was to determine if there was any major plate-to-plate variation and in both cases, there was no apparent variation.

Assay [3] has as its target T3, alanine scanning peptide 68 (human, N-terminal biotin).
T3 peptide: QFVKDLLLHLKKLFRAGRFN
The assay can be described thus: alanine scanning peptide ELISA, n=2.
Source text: as §1, §2

Assay [4] addresses T1, E. coli-expressed recombinant human …. Briefly: BIAcore analysis 4, antibody captured on Protein A, IL-13 in solution. Here is the method:
Completed for both human and cynomolgus IL-13 (E. coli-expressed protein). The quoted KD values are the average from 5 different IL-13 concentration curves (done in triplicate).
The kinetics analysis was performed on a Biacore 3000 machine, using an antibody capture method. Briefly, for the chimeric 6A1 and humanised antibody constructs Protein A capture was used, whilst for the parental murine 6A1 antibody, capture was by a anti-mouse Fc antibody supplied by Biacore. Briefly, the method is as follows, the capture ligand was immobilised to a CM5 Biosensor chip by primary amine coupling in accordance with Biacore standard protocols and using the reagents supplied in Biacores' primary amine coupling kit. The method involves activation CM5 sensor surface by passing a solution of 50 mM N-hydroxy-succinimide (NHS) and 200 mM N-ethyl-N′-dimethylaminopropyl […] (EDC) over the surface. Then, the capture ligand (dissolved in acetate buffer pH5 or pH4.5) was coupled to the activated sensor surface after which any still activated esters were blocked by an injection of 1M ethanolamine hydrochloride, pH8.5.
The candidate antibody was then passed over the Protein A or anti-mouse Fc antibody surface, depending on whether it was human or mouse in origin and captured. Once a stable binding signal was seen IL13 was passed over the captured antibody surface at various defined concentrations. The subsequent binding curves were analysed with Biacore analysis software BIAeval v4.1 to determine kinetics. The experiments were carried out using Biacore HBS-EP buffer.
(Surface plasmon resonance follows binding to a sensor surface in real time, without labels.)

Assay [5] shares this target. The assay can be described thus: BIAcore analysis 2.
For assay [6] the target is unchanged. Briefly: cell-based or functional assay.
The target of assay [7] is E. coli-expressed recombinant Q130 human IL-13 (human, UniProt P35225 35-146, limits assumed). The assay can be described thus: cell-based or functional assay.
Sequence of E. coli-expressed recombinant Q130 human IL-13 (P35225 35-146 limits assumed): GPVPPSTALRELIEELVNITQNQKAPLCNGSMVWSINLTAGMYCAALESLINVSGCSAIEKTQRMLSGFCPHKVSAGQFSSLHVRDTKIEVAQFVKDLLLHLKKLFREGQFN
In assay [8] the target is T4, E. coli-expressed recombinant cynomolgus IL-13 (cynomolgus, UniProt Q5I6E4 21-132 (Macaca thibetana entry)).
T4 chain: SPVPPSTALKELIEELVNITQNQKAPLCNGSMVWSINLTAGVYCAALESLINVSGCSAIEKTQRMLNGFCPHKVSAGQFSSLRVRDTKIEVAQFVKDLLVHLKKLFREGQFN
The assay can be described thus: cell-based or functional assay.

In assay [9] the target is mammalian-expressed (CHO cell) human IL-13 (human, UniProt P35225 35-146, limits assumed). Briefly: cell-based or functional assay.
Sequence of mammalian-expressed (CHO cell) human IL-13 (P35225 other isoform, or with tags, fused parts or gaps limits assumed): as the sequence (P35225 35-146 limits assumed) above, with Q110R counted along it
The target of assay [10] is T5, E. coli-expressed recombinant det-1 tagged human IL-13 (human, UniProt P35225 35-146).
T5 construct: also called Det-1 tagged human IL-13 (made in-house); not shown: det-1 tag
T5 sequence (P35225 other isoform, or with tags, fused parts or gaps): as the sequence (P35225 35-146 limits assumed) above, with Q110R counted along it
The assay can be described thus: competition ELISA: inhibition of det-1 tagged human IL-13 binding to human IL-13Rα1-Fc.

Assay [11] deals with T5, E. coli-expressed recombinant det-1 …. The assay can be described thus: competition ELISA: inhibition of det-1 tagged human IL-13 binding to human IL-13Rα2-Fc.
A further assay deals with T6, fine mapping peptide 423 (SMILES N=C(N)NCCC[C@H](NC(=O)[C@H](Cc1ccccc1)NC(=O)CNC(=O)[C@H](CO)NC(=O)CNC(=O)[C@H](CO)NC(=O)CCCC[C@@H]1SC[C@@H]2NC(=O)N[C@@H]21)C(=O)N[C@@H](CCC(=O)O)C(=O)NCC(N)=O).
T6 peptide: Biotin-SGSGFREG-NH2
The assay can be described thus: fine mapping peptide ELISA. Here is the method: (§3) A binding epitope for mAb 6A1 was determined using a peptide set based around […] for binding to human IL-13 and […] for binding to cynomolgus IL-13. Peptides were ordered with 1 amino acid sequentially removed from either the N or C-terminus of these parental peptide sequences (i.e. […] or […]), in order to define the precise linear binding epitope for mAb 6A1.
(§4) An ELISA method was used to detect binding of immobilised biotinylated peptide to the parental mAb 6A1.

The target in a further assay is T7, fine mapping peptide 421 (SMILES …).
T7 peptide: Biotin-SGSGKLFREG-NH2
The assay can be described thus: fine mapping peptide ELISA. Here is the method:
as §3, §4

For assay [12], the target named is T1, E. coli-expressed recombinant human …. The assay can be described thus: BIAcore.
Assay [13] concerns the target T4, E. coli-expressed recombinant …. The assay can be described thus: BIAcore.
Assay [14] has as its target T5, E. coli-expressed recombinant det-1 …. Briefly: BIAcore.
Another assay addresses T8, 16 mer peptide 44 (cynomolgus, N-terminal biotin; C-terminal free acid).
T8 construct: also called 44 (Control)
T8 peptide: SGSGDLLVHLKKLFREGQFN
Briefly: 16 mer peptide ELISA. An excerpt:
(§5) Biotinylated 16 mer peptides offset by 4 were synthesised to map the location of the B cell epitope recognised by mAb 6A1 on both human and cynomolgus IL-13. An ELISA method was used to detect binding of immobilised biotinylated peptide to the parental mAb 6A1.

Another assay concerns the target T9, 16 mer peptide 30 (N-terminal biotin; C-terminal amide).
T9 peptide: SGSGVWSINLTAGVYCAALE
The assay can be described thus: 16 mer peptide ELISA.
Source text: as §5

The target of assay [15] is E. coli-expressed recombinant human GM-CSF (human, UniProt P04141 18-144). Briefly: sandwich ELISA.
Sequence of E. coli-expressed recombinant human GM-CSF (P04141 18-144 limits assumed): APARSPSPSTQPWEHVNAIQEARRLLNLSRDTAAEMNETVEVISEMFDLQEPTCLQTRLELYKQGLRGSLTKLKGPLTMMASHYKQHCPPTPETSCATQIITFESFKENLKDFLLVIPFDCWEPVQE

*: point of attachment. Biotin = O=C1N[C@H]2[C@H](CS[C@H]2CCCCC(=O)*)N1

T1 sequence (P35225 other isoform, or with tags, fused parts or gaps): as the sequence (P35225 35-146 limits assumed) above, with Q110R counted along it

B1: L1+A1 (antibody, human IgG1, kappa, V domains shown)
VH: QVQLVQSGAEVKKPGSSVKVSCKASGFYIKDTYMHWVRQAPGQGLEWMGTIDPANGNTKYVPKFQGRVTITADESTSTAYMELSSLRSEDTAVYYCARSIYDDYHYDDYYAMDYWGQGTLVTVSS
VL: DIVMTQSPLSLPVTPGEPASISCRSSQNIVHINGNTYLEWYLQKPGQSPRLLIYKISDRFSGVPDRFSGSGSGTDFTLKISRVEADDVGIYYCFQGSHVPWTFGQGTKLEIKR
notes: Humanised 6A1, VH construct A1 and VL construct L1, human gamma1 wild type / kappa constant regions; also called A1L1; humanised anti-IL-13 mAb L1+A1
The EC50 is the concentration that produces a half-maximal response. For orientation: Kd means the free concentration of one partner at which half of the binding sites on the other are occupied at equilibrium, for simple one-to-one binding. The koff is the first-order rate constant of dissociation. The term kon denotes the second-order rate constant of association. On to B1, for which the 50% effective concentration (EC50) in [1] is 0.018 mg/L. The “Average A490” value in assay [2] was found to be 0.816 A490; in assay [3], 2.81 A490. The figures for the Kd in [4] and in assay [5] were 0.17 nM and 0.149 nM, respectively. Besides, the off-rate (koff) in assay [4] is 0.00014 s⁻¹; in [5] it was 6.95e-05 s⁻¹. Moreover, the on-rate constant (kon) in [4] was determined as 824000 M⁻¹ s⁻¹; in [5] it was 466000 M⁻¹ s⁻¹.

B2: monoclonal antibody 6A1 (antibody, IgG1, V domains shown)
VH: EIQLQQSVAELVRPGASVRLSCTASGFYIKDTYMHWVIQRPEQGLEWIGTIDPANGNTKYVPKFQGKATITADTSSNTAYLRLSSLTSEDTAIYYCARSIYDDYHYDDYYAMDYWGQGTSVTVSS
VL: DVLMTQTPLSLPVSLGDQASISCRSSQNIVHINGNTYLEWYLQKPGQSPKLLIYKISDRFSGVPDRFSGSGSGTDFTLKISRVEAEDLGVYYCFQGSHVPWTFGGGTKLEIK
notes: also called 6A1 parental mAb; parental mouse mAb 6A1
For orientation: IC50 means the concentration that inhibits the measured activity by half. For the molecule B2, the “ND50, TF-1 cell proliferation bioassay” value was found to be 0.0783 µg/mL in assay [6], 0.11 µg/mL in [7], 0.04 µg/mL in [8] and 0.037 µg/mL in [9]. The IC50 in assay [10] was 0.165 mg/L; in [11], 0.056 mg/L. Further, the “absorbance at 490 nm” value with fine mapping peptide 423 worked out at 0.052 A490; in the assay with fine mapping peptide 421 it was 0.059 A490; in the assay with 16 mer peptide 44, 2.23 A490; with 16 mer peptide 30, 0.062 A490. The half-maximal effective concentration (EC50) in assay [1] is 0.049 mg/L. Further, the results for the equilibrium dissociation constant (Kd) in [12], in [13] and in assay [14] were 0.27 nM, 0.0612 nM and 0.032 nM, respectively. Besides, the dissociation rate constant (koff) in assay [12] is 0.000184 s⁻¹; in [13], 5.6e-05 s⁻¹; in assay [14] it was 7.2e-05 s⁻¹. For the same molecule, the association rate constant (kon) turned out to be 682000 M⁻¹ s⁻¹ in [12], 914000 M⁻¹ s⁻¹ in assay [13] and 2.25e+06 M⁻¹ s⁻¹ in assay [14]. For the same molecule, the “Average A490” value in assay [2] was 0.595 A490; in [3] it was 3.58 A490. Further, the binding result in assay [15] is listed as “no binding”.

The record behind these values is patent US20110243928A1 (published 2011).
